± gives the uncertainty stated by the source.
B1: Ankyrin-2, residues 3571 to 3650; numbered along this chain, Q01484 (parent)
chain: ERLAYIADHLGFSWTELARELDFTEEQIHQIRIENPNSLQDQSHALLKYWLERDGKHATDTNLVECLTKINRMDIVHLME
B2: Transcription elongation regulator 1-like protein, residues 448 to 504; numbered along this chain, Q5VWI1 (parent)
chain: LPLEERVTHFRDMLLERGVSAFSTWEKELHKIVFDPRYLLLNSEERKQIFEQFVKTR

Variants of: B1
Assay: abundance fitness (aPCA) (normalised: wild type 0, dead -1); higher = more abundant; growth selection in yeast, the domain comes from the species named
Conditions: Homo sapiens

| Variant | abundance fitness |
| --- | --- |
| M73V | 0.035 ± 0.15 |
| D74A | -0.515 ± 0.059 |
| D74E | -0.151 ± 0.11 |
| D74F | -0.971 ± 0.28 |
| D74G | -0.678 ± 0.094 |
| D74H | -0.563 ± 0.15 |
| D74I | -0.692 ± 0.22 |
| D74K | -0.348 ± 0.19 |
| D74L | -0.849 ± 0.095 |
| D74M | -0.839 ± 0.26 |
| D74N | -0.577 ± 0.17 |
| D74P | -0.471 ± 0.058 |
| D74Q | -0.435 ± 0.18 |
| D74R | -0.707 ± 0.11 |
| D74S | -0.593 ± 0.067 |
| D74T | -0.793 ± 0.12 |
| D74V | -0.682 ± 0.11 |
| D74W | -0.573 ± 0.17 |
| D74Y | -0.862 ± 0.24 |
| I75A | 0.011 ± 0.17 |
| I75C | -0.297 ± 0.28 |
| I75E | -0.031 ± 0.11 |
| I75F | -0.371 ± 0.34 |
| I75G | -0.263 ± 0.087 |

| Variant | abundance fitness |
| --- | --- |
| I75M | 0.076 ± 0.25 |
| I75R | -0.609 ± 0.21 |
| I75S | -0.54 ± 0.45 |
| I75V | 0.136 ± 0.27 |
| V76A | -0.091 ± 0.16 |
| V76C | -0.027 ± 0.18 |
| V76E | -0.063 ± 0.11 |
| V76F | -0.102 ± 0.11 |
| V76G | -0.216 ± 0.046 |
| V76H | -0.084 ± 0.13 |
| V76I | 0.04 ± 0.088 |
| V76K | -0.467 ± 0.2 |
| V76L | -0.081 ± 0.091 |
| V76M | -0.099 ± 0.12 |
| V76N | -0.249 ± 0.24 |
| V76P | -0.226 ± 0.095 |
| V76Q | -0.107 ± 0.16 |
| V76R | -0.223 ± 0.093 |
| V76S | -0.219 ± 0.1 |
| V76T | -0.223 ± 0.14 |
| V76W | -0.05 ± 0.11 |
| V76Y | -0.196 ± 0.12 |
| M79K | -0.23 ± 0.27 |

Variants of: B2
Assay: as above
Conditions: Homo sapiens

| Variant | abundance fitness |
| --- | --- |
| Y38R | -0.669 ± 0.19 |
| F22N | 0.471 ± 0.21 |
| L15K | -0.161 ± 0.26 |
| D35E | -0.667 ± 0.37 |
| M13F | -0.765 ± 0.46 |
| S43Q | 0.07 ± 0.4 |
| T56S | -0.017 ± 0.16 |
| E4K | 0.132 ± 0.16 |
| E28F | -0.796 ± 0.15 |
| V19I | -0.528 ± 0.15 |
| R17F | -0.368 ± 0.47 |
| H9D | -0.024 ± 0.43 |
| D12S | -0.237 ± 0.098 |
| L29G | -0.667 ± 0.092 |
| F34D | 0.351 ± 0.38 |
| V19K | -0.376 ± 0.29 |
| D35G | -0.757 ± 0.14 |
| S20D | -0.185 ± 0.22 |
| K27A | 0.073 ± 0.15 |
| L40K | -0.966 ± 0.28 |
| L1V | -0.4 ± 0.18 |
| R17K | 0.64 ± 0.17 |
| T24G | -0.662 ± 0.13 |
| A21W | -0.594 ± 0.26 |

| Variant | abundance fitness |
| --- | --- |
| T56K | -0.078 ± 0.22 |
| F53A | -0.949 ± 0.1 |
| E28L | -0.446 ± 0.33 |
| D12Y | -0.112 ± 0.34 |
| L15P | -0.548 ± 0.28 |
| V33P | -0.112 ± 0.33 |
| E51S | -0.28 ± 0.064 |
| Y38G | -0.786 ± 0.14 |
| L3G | -0.214 ± 0.14 |
| R11K | -0.204 ± 0.21 |
| Q48L | -0.082 ± 0.12 |
| V33A | -0.138 ± 0.12 |
| L29I | 0.281 ± 0.32 |
| L29K | 0.158 ± 0.16 |
| T56E | 0.336 ± 0.26 |
| H9C | -0.201 ± 0.079 |
| E16V | -0.666 ± 0.24 |
| S20F | -0.523 ± 0.14 |
| A21T | -0.399 ± 0.3 |
| Q52P | -0.618 ± 0.11 |
| L1A | -0.321 ± 0.33 |
| I32W | -0.514 ± 0.32 |
| Q48R | -0.165 ± 0.098 |
| E4C | -0.458 ± 0.18 |

| Variant | abundance fitness |
| --- | --- |
| W25Y | 0.169 ± 0.28 |
| R17G | -0.978 ± 0.25 |
| F53T | -0.964 ± 0.21 |
| Q48W | -0.05 ± 0.18 |
| E51T | -0.281 ± 0.085 |
| K47G | -0.31 ± 0.12 |
| F22L | -0.045 ± 0.14 |
| P36D | -0.584 ± 0.4 |
| T8S | -0.149 ± 0.12 |
| E5C | -0.303 ± 0.12 |
| T24V | -0.59 ± 0.12 |
| L14R | -0.739 ± 0.11 |
| D12E | 0.274 ± 0.19 |
| V7M | 0.434 ± 0.21 |
| S43R | -0.156 ± 0.14 |
| V19S | -0.805 ± 0.25 |
| H30T | -0.492 ± 0.18 |
| E44Y | -0.42 ± 0.15 |
| S43W | -0.424 ± 0.11 |
| G18V | -0.612 ± 0.26 |
| E26L | -0.564 ± 0.11 |
| T56I | -0.034 ± 0.19 |
| N42L | -0.529 ± 0.23 |
| L41M | -0.335 ± 0.16 |

| Variant | abundance fitness |
| --- | --- |
| V19W | -0.767 ± 0.27 |
| I49S | -0.669 ± 0.23 |
| V7L | -0.096 ± 0.15 |
| F10R | -0.677 ± 0.15 |
| Q52W | -0.621 ± 0.14 |
| K47A | -0.381 ± 0.1 |
| L29M | 0.377 ± 0.25 |
| V19Q | -0.625 ± 0.4 |
| W25L | -0.795 ± 0.29 |
| V33R | 0.108 ± 0.062 |
| R17L | -0.312 ± 0.23 |
| F10A | -0.717 ± 0.14 |
| D35S | -0.944 ± 0.35 |
| D35A | -1.02 ± 0.29 |
| K27V | -0.422 ± 0.12 |
| L15S | 0.054 ± 0.1 |
| P2A | 0.331 ± 0.18 |
| E51A | 0.047 ± 0.099 |
| M13W | -0.08 ± 0.31 |
| N42Q | 0.013 ± 0.25 |
| H30W | -0.138 ± 0.19 |
| T56L | -0.311 ± 0.13 |
| W25E | -0.713 ± 0.21 |
| V54M | -0.505 ± 0.38 |

| Variant | abundance fitness |
| --- | --- |
| E16S | -0.797 ± 0.17 |
| Q52N | -0.506 ± 0.19 |
| L29E | 0.139 ± 0.076 |
| E28S | -0.659 ± 0.2 |
| E28A | -0.822 ± 0.19 |
| K55W | -0.543 ± 0.2 |
| E16A | -0.46 ± 0.27 |
| E5S | -0.375 ± 0.19 |
| E45Q | -0.004 ± 0.12 |
| N42T | -0.325 ± 0.26 |
| E16R | -1.09 ± 0.35 |
| W25D | -0.986 ± 0.31 |
| P36R | -0.504 ± 0.13 |
| E5W | -0.715 ± 0.39 |
| A21K | -0.286 ± 0.11 |
| T24R | -0.701 ± 0.21 |
| V33H | 0.238 ± 0.44 |
| E44R | -0.201 ± 0.12 |
| E51W | -0.766 ± 0.21 |
| L14M | -0.066 ± 0.33 |
| E26T | -0.524 ± 0.25 |
| F50M | -0.605 ± 0.5 |
| I32E | -0.633 ± 0.18 |
| F53G | -0.368 ± 0.1 |

Source: the Human Domainome abundance scans (Beltran et al. 2025)
